Series [1] concerns the molecule itself. Put plainly: size exclusion chromatography (Superdex S200) of His-tagged CD5L from 293E supernatant. Here is the method:
Recombinant protein CD5L monomer and homodimer was purified from the supernatant of 293E cells transfected with a CD5L expression vector. Recombinant mCD5L:p40 was recovered from the supernatant of 293E cells transfected with the CD5L:p40 expression vector. After harvesting transfected 293E cells by centrifugation, the protein was affinity purified from the supernatant using Ni Sepharose 6 Fast Flow resin (GE Healthcare). After binding the protein to resin, the resin was washed with 20 mM Tris, 0.3M NaCl, pH 8.0 and the protein eluted using 20 mM Tris, 0.3M NaCl, 0.4M Imidazole, pH 8.0. The protein was further polished by a […] sizing exclusion column (GE Healthcare) in buffer 10 mM NaHPO4, 0.15M NaCl, pH 7.2.
Background: Size exclusion chromatography separates by hydrodynamic size, large species first.

Series [2] has as its target T1, endogenous CD5L (mouse; in serum or secreted by bone marrow derived dendritic cells) (mouse, UniProt Q9QWK4 22-352).
T1 construct: also called natural CD5L; AIM
T1 sequence (looked up): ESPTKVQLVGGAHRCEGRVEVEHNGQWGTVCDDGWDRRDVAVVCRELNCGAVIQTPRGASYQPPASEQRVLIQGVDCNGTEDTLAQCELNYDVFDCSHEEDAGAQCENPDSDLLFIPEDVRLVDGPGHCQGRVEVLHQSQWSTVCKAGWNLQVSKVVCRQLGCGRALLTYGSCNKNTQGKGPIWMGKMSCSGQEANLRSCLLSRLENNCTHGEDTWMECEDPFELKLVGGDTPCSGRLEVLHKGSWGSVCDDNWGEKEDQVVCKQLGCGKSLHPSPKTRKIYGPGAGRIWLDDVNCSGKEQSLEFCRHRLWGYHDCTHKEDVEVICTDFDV
Description: sandwich ELISA on mouse serum, capture with anti-IL-12 p40, detection with anti-CD5L. The procedure: Serum was collected kinetically from wildtype and Cd5l^{-/-} mice with DSS-induced colitis (2% DSS in drinking water for 6 days followed by 7 days of normal water) and the level of CD5L:p40 was measured using an ELISA assay. In the ELISA assay anti-IL-12 p40 was used to capture the heterodimer and enzyme linked anti-CD5L was used to detect the heterodimer.
Preliminary screens were conducted to determine what signals could induce CD5L homodimer and CD5L:p40 heterodimer. In particular, bone marrow derived dendritic cells were stimulated with TLR ligands for 24 hours and the supernatant was analyzed for CD5L:p40 secretion by ELISA.

B1: recombinant CD5L with His tag at C-terminus (mouse, mCD5L) (ligand)
chain: ESPTKVQLVGGAHRCEGRVEVEHNGQWGTVCDDGWDRRDVAVVCRELNCGAVIQTPRGASYQPPASEQRVLIQGVDCNGTEDTLAQCELNYDVFDCSHEEDAGAQCENPDSDLLFIPEDVRLVDGPGHCQGRVEVLHQSQWSTVCKAGWNLQVSKVVCRQLGCGRALLTYGSCNKSTQGKGPIWMGKMSCSGQEANLRSCLLSRLENNCTHGEDTWMECEDPFELKLVGGDTPCSGRLEVLHKGSWGSVCDDNWGEKEDQVVCKQLGCGKSLHPSPKTRKIYGPGAGRIWLDDVNCSGKEQSLEFCRHRLWGYHDCTHKEDVEVICTDFDV
notes: Made by Biolegend in 293E cells; The transfection gave a monomer and a homodimer fraction on size exclusion; also called soluble CD5L; sCD5L; not shown: His tag at C-terminus
In the case of B1, the binding result in series [1] is listed as “binds”.

B2: endogenous p40 (IL-12 p40, Il12b; mouse) (ligand, UniProt P43432 23-335, looked up)
chain: MWELEKDVYVVEVDWTPDAPGETVNLTCDTPEEDDITWTSDQRHGVIGSGKTLTITVKEFLDAGQYTCHKGGETLSHSHLLLHKKENGIWSTEILKNFKNKTFLKCEAPNYSGRFTCSWLVQRNMDLKFNIKSSSSSPDSRAVTCGMASLSAEKVTLDQRDYEKYSVSCQEDVTCPTAEETLPIELALEARQQNKYENYSTSFFIRDIIKPDPPKNLQMKPLKNSQVEVSWEYPDSWSTPHSYFSLKFFVRIQRKKEKMKETEEGCNQKGAFLVEKTSTEVQCKGGNVCVQAQDRYYNSSCSKWACVPCRVRS
notes: also called interleukin 12B
Regarding B2, in series [2], the binding result is recorded as “binds”.
